In article PMC3973126 (Journal of Human Genetics, 2014):

Molecular target: the molecule itself
Experiment: atomic force microscopy

B1: UGT1A1 (sample observed by atomic force microscopy) (enzyme, human, UniProt P22309 26-533, looked up)
chain: HAGKILLIPVDGSHWLSMLGAIQQLQQRGHEIVVLAPDASLYIRDGAFYTLKTYPVPFQREDVKESFVSLGHNVFENDSFLQRVIKTYKKIKKDSAMLLSGCSHLLHNKELMASLAESSFDVMLTDPFLPCSPIVAQYLSLPTVFFLHALPCSLEFEATQCPNPFSYVPRPLSSHSDHMTFLQRVKNMLIAFSQNFLCDVVYSPYATLASEFLQREVTVQDLLSSASVWLFRSDFVKDYPRPIMPNMVFVGGINCLHQNPLSQEFEAYINASGEHGIVVFSLGSMVSEIPEKKAMAIADALGKIPQTVLWRYTGTRPSNLANNTILVKWLPQNDLLGHPMTRAFITHAGSHGVYESICNGVPMVMMPLFGDQMDNAKRMETKGAGVTLNVLEMTSEDLENALKAVINDKSYKENIMRLSSLHKDRPVEPLDLAVFWVEFVMRHKGAPHLRPAAHDLTWYQYHSLDVIGFLLAVVLTVAFITFKCCAYGYRKCLGKKGRVKKAHKSKTH
  stoichiometry N: 2
